Measurements as given in the supplement of paper PMC7877785.
± gives the uncertainty stated by the source.

Test: self-splicing fitness, log relative to wild type (ln ratio); higher = more splicing; Tetrahymena group I intron in knt gene, E. coli kanamycin selection, DiMSum; sequences stand for … in CUCUCU…GGAGGGAAAAGUUAUCAGGCAUGCACCUGGUAGCUAGUCUUUAAACCAAUAGAUUGCAUCGGUUUAAAAGGCAAGACCGUCAAAUUGCGGGAAAGGGGUCAACAGCCGUUCAGUACCAAGUCUCAGGGGAAACUUUGAGAUGGCCUUGCAAAGGGUAUGGUAAUAAGCUGACGGACAUGGUCCUAACCACGCAGCCAAGUCCUAAGUCAACAGAUCUUCUGUUGAUAUGGAUGCAGUUCACAGACUAAAUGUCGGUCGGGGAAGAUGUAUUCUUCUCAUAAGAUAUAGUCGGACCUCUCCUUAAUGGGAGCUAGCGGAUGAAGUGAUGCAACACUGGAGCCGCUGGGAACUAAUUUGUAUGCGAAAGUAUAUUGAUUAGUUUUGGAGUACUCGUGGUCG
In short: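 Fitness was computed with DiMSum as the error-weighted combination of replicate fold changes, kanamycin versus none, each normalised to wild type. The library randomised all eight intron nucleotides of the P1ex region, with the intron placed in the knt kanamycin-resistance gene on pET-22b(+) in E. coli BL21(DE3). Six replicate transformations were grown overnight at 37°C or 30°C on LB agar with or without 25 μg/mL kanamycin, plus 100 μg/mL carbenicillin, 50 μM IPTG and 0.2% rhamnose. Pooled colonies were amplicon-sequenced on an Illumina HiSeq 2500.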

Sequence	self-splicing fitness (ln) (30 °C)	self-splicing fitness (ln) (37 °C)
UUUCAGCAAUAUUACGGUCC	-2.8 ± 0.37	-0.245 ± 0.35
CGCCAGCAAUAUUACGCAGA	-3.57 ± 0.47	-2.53 ± 0.24
UUGCAGCAAUAUUACGUAUC	-3.83 ± 0.16	-2.4 ± 0.15
CUUCAGCAAUAUUACGUGUU	-3.34 ± 0.19	-2.72 ± 0.24
CCUUAGCAAUAUUACGCUCA	-3 ± 0.21	-1.94 ± 0.3
AUCCAGCAAUAUUACGGCUA	-0.15 ± 0.092	-0.19 ± 0.08
UUUCAGCAAUAUUACGACAG	-0.245 ± 0.089	0.886 ± 0.15
GCCUAGCAAUAUUACGUCUU	-1.54 ± 0.098	-1.68 ± 0.11
AGAUAGCAAUAUUACGCCUA	-1.21 ± 0.099	-1.29 ± 0.13
AACAAGCAAUAUUACGUAGU	-2.37 ± 0.11	-1.47 ± 0.12
GCAUAGCAAUAUUACGCCGU	-3.07 ± 0.15	-1.83 ± 0.14
ACGAAGCAAUAUUACGCUAA	-1.22 ± 0.079	-0.582 ± 0.083
UACCAGCAAUAUUACGGUCC	-1.55 ± 0.11	-0.0163 ± 0.11
GCCAAGCAAUAUUACGGAAU	-1.8 ± 0.15	-0.618 ± 0.15
UAGGAGCAAUAUUACGGCCA	-2.27 ± 0.21	-1.7 ± 0.27
GUUAAGCAAUAUUACGGCAU	-0.746 ± 0.12	0.0583 ± 0.18
GGCCAGCAAUAUUACGGAGU	-0.585 ± 0.063	-0.166 ± 0.084
CCGUAGCAAUAUUACGAAGU	-3.05 ± 0.21	-1.46 ± 0.31
GACGAGCAAUAUUACGAUAG		-3.92 ± 0.46
AACCAGCAAUAUUACGUGUU	-3.59 ± 0.11	-2.47 ± 0.12
GUUUAGCAAUAUUACGAUCA	-1.38 ± 0.31	-0.619 ± 0.16
AGUCAGCAAUAUUACGUUAA	-3.47 ± 0.18	-1.77 ± 0.12
CCGAAGCAAUAUUACGGGGA	-3.16 ± 0.19	-2.96 ± 0.19
UGUUAGCAAUAUUACGGACU	-0.161 ± 0.079	0.414 ± 0.093
AGAGAGCAAUAUUACGAAUG	-2.07 ± 0.22	-3.27 ± 0.47

Sequence	self-splicing fitness (ln) (30 °C)	self-splicing fitness (ln) (37 °C)
AUGAAGCAAUAUUACGGGGU	-2.79 ± 0.23	-1.21 ± 0.17
UCUAAGCAAUAUUACGGCCU	-3.76 ± 0.41	
UGGAAGCAAUAUUACGAAGA	-2.23 ± 0.28	-1.01 ± 0.28
CUCUAGCAAUAUUACGGAUG	-1.32 ± 0.092	-0.418 ± 0.13
CGUAAGCAAUAUUACGCAUU	-3.95 ± 0.28	-2.68 ± 0.18
UACUAGCAAUAUUACGGGUC	-2.68 ± 0.21	-2.29 ± 0.26
GAGAAGCAAUAUUACGUUUG	-2.98 ± 0.11	-1.85 ± 0.14
ACUCAGCAAUAUUACGGCUU	-0.0445 ± 0.067	0.494 ± 0.086
UCACAGCAAUAUUACGACGG	-0.234 ± 0.066	0.353 ± 0.086
GACAAGCAAUAUUACGACCU	0.335 ± 0.11	-0.133 ± 0.12
UCUUAGCAAUAUUACGCACG	-1.56 ± 0.29	-1.47 ± 0.34
GGAAAGCAAUAUUACGGGGA	-2.87 ± 0.15	-2.9 ± 0.26
AAUCAGCAAUAUUACGUGGC	-3.57 ± 0.17	-1.83 ± 0.12
GGAUAGCAAUAUUACGGGUU	-2.16 ± 0.096	-1.42 ± 0.12
GCACAGCAAUAUUACGACUA	-1.17 ± 0.11	-0.702 ± 0.085
AUUGAGCAAUAUUACGCAGC	-1.85 ± 0.29	-2.7 ± 0.38
GAACAGCAAUAUUACGACCC	-0.0445 ± 0.095	0.121 ± 0.11
UAUAAGCAAUAUUACGUAUC	-1.88 ± 0.17	-2.03 ± 0.19
CACAAGCAAUAUUACGAAGC	-4.44 ± 0.28	-1.87 ± 0.19
UUCUAGCAAUAUUACGUAGU		-1.6 ± 0.24
CUUAAGCAAUAUUACGGGGG	-3.65 ± 0.2	-1.26 ± 0.23
ACUUAGCAAUAUUACGCGUU	-2.5 ± 0.12	-2.05 ± 0.12
UCGAAGCAAUAUUACGAUGG	-0.763 ± 0.079	-0.538 ± 0.13
UGUGAGCAAUAUUACGCUGC	-1.9 ± 0.25	
ACAAAGCAAUAUUACGGGAU	-1.19 ± 0.058	-0.492 ± 0.076

Sequence	self-splicing fitness (ln) (30 °C)	self-splicing fitness (ln) (37 °C)
CGGGAGCAAUAUUACGGCAU		-1.8 ± 0.35
GGAUAGCAAUAUUACGACCU	0.689 ± 0.32	0.93 ± 0.25
CAGGAGCAAUAUUACGCAGG	-2.36 ± 0.078	-1.37 ± 0.076
CUCUAGCAAUAUUACGAACU		-4.2 ± 0.42
ACACAGCAAUAUUACGUGUA	-3.54 ± 0.11	-2.06 ± 0.085
AGAUAGCAAUAUUACGUUUU	-2.35 ± 0.09	-1.68 ± 0.1
AACCAGCAAUAUUACGCUUU	-1.42 ± 0.084	-1.05 ± 0.09
GCUUAGCAAUAUUACGUAUC	-1.32 ± 0.083	0.415 ± 0.093
UCGUAGCAAUAUUACGUCCC	-2.74 ± 0.3	
GUGGAGCAAUAUUACGGCGG	-3.32 ± 0.29	-1.54 ± 0.27
AUUCAGCAAUAUUACGAGGU	-3.61 ± 0.17	-1.72 ± 0.14
UCUCAGCAAUAUUACGAACG	-1.88 ± 0.12	-0.666 ± 0.14
UCUAAGCAAUAUUACGGUAU	-4.13 ± 0.27	-1.56 ± 0.21
UGAUAGCAAUAUUACGCGAU	-2.6 ± 0.29	-2.65 ± 0.26
CACCAGCAAUAUUACGAUUU	-3.36 ± 0.15	-1.52 ± 0.13
CCCUAGCAAUAUUACGUGUC	-3.29 ± 0.13	-2.97 ± 0.19
UUCUAGCAAUAUUACGAUCU	-2.84 ± 0.34	-2.52 ± 0.27
UGACAGCAAUAUUACGGCUU	-0.693 ± 0.075	-0.053 ± 0.092
GAGAAGCAAUAUUACGAUUG	-2.76 ± 0.22	-1.49 ± 0.23
GGCAAGCAAUAUUACGUGUC	-2.42 ± 0.11	-3.08 ± 0.17
AUUAAGCAAUAUUACGCCCG	-1.13 ± 0.22	0.13 ± 0.33
CACUAGCAAUAUUACGCUCU	-2.46 ± 0.18	-0.207 ± 0.13
GGUAAGCAAUAUUACGUAUG	-3.72 ± 0.29	-2.32 ± 0.18
AUCCAGCAAUAUUACGAGAA	-2.6 ± 0.24	-1.22 ± 0.22
AUUAAGCAAUAUUACGUGUG	-1.9 ± 0.089	-1.18 ± 0.1

Sequence	self-splicing fitness (ln) (30 °C)	self-splicing fitness (ln) (37 °C)
UCGGAGCAAUAUUACGUGGA	-1.28 ± 0.2	-1.48 ± 0.18
GUGUAGCAAUAUUACGCAUG	-2.88 ± 0.27	-2.67 ± 0.41
CGUUAGCAAUAUUACGAUUG	-0.332 ± 0.073	-0.316 ± 0.084
ACAUAGCAAUAUUACGAUCA	-1.71 ± 0.087	-0.779 ± 0.098
ACUUAGCAAUAUUACGGUCC	-2.46 ± 0.12	-1.33 ± 0.12
AGGCAGCAAUAUUACGGGGU	-3.54 ± 0.21	-3.25 ± 0.37
UUCUAGCAAUAUUACGAACG	-3.61 ± 0.36	-1.15 ± 0.27
AGUAAGCAAUAUUACGUCAG		-2.58 ± 0.3
ACCCAGCAAUAUUACGAGAA	-1.61 ± 0.23	-1.24 ± 0.21
GAUAAGCAAUAUUACGUGCA	-0.463 ± 0.15	-1.06 ± 0.18
GCCGAGCAAUAUUACGGUCU	-2.23 ± 0.13	-2.26 ± 0.24
CUCGAGCAAUAUUACGUCUU	-4.4 ± 0.21	-3.37 ± 0.21
UACGAGCAAUAUUACGUGAC	-4.06 ± 0.33	-1.76 ± 0.27
AGCCAGCAAUAUUACGGCCG	-1.29 ± 0.11	-0.262 ± 0.13
GUAUAGCAAUAUUACGCGUC	-2.87 ± 0.27	-0.113 ± 0.24
UACUAGCAAUAUUACGGCUA	-1.58 ± 0.12	-0.671 ± 0.099
CAUAAGCAAUAUUACGUACC	-1.97 ± 0.3	
AGGGAGCAAUAUUACGCGCG	-1.62 ± 0.35	-1.11 ± 0.37
UAAGAGCAAUAUUACGACCU	-1.34 ± 0.23	
GUAGAGCAAUAUUACGACUA	-0.724 ± 0.071	0.693 ± 0.11
AAGAAGCAAUAUUACGCGCC	-0.652 ± 0.13	-0.664 ± 0.2
GACAAGCAAUAUUACGCGUG	-2.54 ± 0.076	-0.344 ± 0.071
CUUUAGCAAUAUUACGGGUA	-3.97 ± 0.47	-2.56 ± 0.21
